Laboratory results: the supplement of paper PMC9732359
± gives the uncertainty stated by the source.

Test: protein stability index of a GFP-peptide fusion (yeast GPS) (PSI 1-4); higher = more stable; sorted into four equal gates, so the index is relative within each strain
Procedure, shortened: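 Mid-log yeast cultures in leucine-free medium, carrying a pooled plasmid library, were sorted into four equal gates by their GFP/Cherry fluorescence ratio. Each plasmid expressed Cherry along with GFP fused upstream of a tiled 17-residue yeast protein peptide. Plasmids recovered from each gate were PCR-amplified and Illumina-sequenced, with reads assigned to strains by barcodes. The protein stability index was obtained by summing each gate's read frequency weighted by its gate number.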

## LEVANDLQLLYVESDED [IRR1]
doa10∆
  protein stability index: 1.43 ± 0.13
pdr5∆
  protein stability index: 1.21 ± 0.091
san1∆
  protein stability index: 1.42 ± 0.2
ubr1∆
  protein stability index: 1.13 ± 0.046

## LGKKGVPYVVTHDGRTI [RPS4A]
doa10∆
  protein stability index: 2.43 ± 0.068
pdr5∆
  protein stability index: 2.52 ± 0.092
san1∆
  protein stability index: 1.66 ± 0.098
ubr1∆
  protein stability index: 2.13 ± 0.054

## QDVDFYKNLDRGFSKDL [RRP6]
doa10∆
  protein stability index: 3.44 ± 0.13
pdr5∆
  protein stability index: 3.75 ± 0.15
san1∆
  protein stability index: 3.25 ± 0.074
ubr1∆
  protein stability index: 3.23 ± 0.097

## VVQDSQTATQLLERGRL [SMC2]
doa10∆
  protein stability index: 2.9 ± 0.053
pdr5∆
  protein stability index: 2.87 ± 0.08
san1∆
  protein stability index: 2.81 ± 0.054
ubr1∆
  protein stability index: 2.5 ± 0.058

## QFSQLNDPNAAVNMTQN [MED6]
doa10∆
  protein stability index: 2.71 ± 0.089
pdr5∆
  protein stability index: 2.91 ± 0.1
san1∆
  protein stability index: 2.86 ± 0.039
ubr1∆
  protein stability index: 2.62 ± 0.06

## QNSLLTNTHPNFLSKIR [SNF2]
doa10∆
  protein stability index: 2.96 ± 0.073
pdr5∆
  protein stability index: 2.92 ± 0.075
san1∆
  protein stability index: 3.01 ± 0.07
ubr1∆
  protein stability index: 2.94 ± 0.047

## ILEESLNAIILKLEKLN [SMC3]
doa10∆
  protein stability index: 1.66 ± 0.061
pdr5∆
  protein stability index: 1.72 ± 0.062
san1∆
  protein stability index: 1.5 ± 0.14
ubr1∆
  protein stability index: 2.24 ± 0.07

## ASKVLLKIFLYLESLFA [IRR1]
san1∆
  protein stability index: 2.02 ± 0.24

## PVLFNRQPSLHKMSMMA [RPO21]
doa10∆
  protein stability index: 2.54 ± 0.11
pdr5∆
  protein stability index: 2.95 ± 0.093
san1∆
  protein stability index: 3.05 ± 0.23
ubr1∆
  protein stability index: 2.23 ± 0.16

## KDHLLGRLASTIAKQVL [RPL16B]
doa10∆
  protein stability index: 1.66 ± 0.085
pdr5∆
  protein stability index: 1.57 ± 0.092
san1∆
  protein stability index: 1.25 ± 0.14
ubr1∆
  protein stability index: 1.3 ± 0.066

## SLVALGIDPQDLKKLNL [CDC53]
doa10∆
  protein stability index: 2.84 ± 0.068
pdr5∆
  protein stability index: 2.72 ± 0.066
san1∆
  protein stability index: 2.79 ± 0.049
ubr1∆
  protein stability index: 2.25 ± 0.04

## YKDVSDLIRSESMLHLS [IRR1]
doa10∆
  protein stability index: 2 ± 0.071
pdr5∆
  protein stability index: 2.29 ± 0.054
san1∆
  protein stability index: 2.11 ± 0.093
ubr1∆
  protein stability index: 2.01 ± 0.043

## MASNEVLVLRGTLEGHN [ASC1]
doa10∆
  protein stability index: 3.06 ± 0.17
pdr5∆
  protein stability index: 2.22 ± 0.16
san1∆
  protein stability index: 3.24 ± 0.13
ubr1∆
  protein stability index: 3.16 ± 0.25

## SEHFLYLAKELNLTGPK [RPN1]
doa10∆
  protein stability index: 2.98 ± 0.13
pdr5∆
  protein stability index: 2.81 ± 0.15
san1∆
  protein stability index: 2.35 ± 0.19
ubr1∆
  protein stability index: 2.98 ± 0.29

## KREIQEALSEKPTREPT [RPC53]
doa10∆
  protein stability index: 2.96 ± 0.11
pdr5∆
  protein stability index: 2.86 ± 0.098
san1∆
  protein stability index: 3.05 ± 0.11
ubr1∆
  protein stability index: 3.15 ± 0.1

## EYEELKEKIEKLSKSAT [SMC1]
doa10∆
  protein stability index: 3.33 ± 0.12
pdr5∆
  protein stability index: 3.09 ± 0.22
san1∆
  protein stability index: 2.98 ± 0.079
ubr1∆
  protein stability index: 3.08 ± 0.073

## ILRKSFDFLMNMPNCDY [RPN2]
doa10∆
  protein stability index: 1.3 ± 0.099
pdr5∆
  protein stability index: 1.1 ± 0.092
san1∆
  protein stability index: 1.23 ± 0.12
ubr1∆
  protein stability index: 1.16 ± 0.041

## SINVHSNNITSGLNRAI [RET1]
doa10∆
  protein stability index: 3.19 ± 0.1
pdr5∆
  protein stability index: 3.24 ± 0.07
san1∆
  protein stability index: 3.24 ± 0.052
ubr1∆
  protein stability index: 3.17 ± 0.052

## HEIITVGPHFKQANNFL [RPL7A]
doa10∆
  protein stability index: 2.45 ± 0.062
pdr5∆
  protein stability index: 2.7 ± 0.069
san1∆
  protein stability index: 2.98 ± 0.061
ubr1∆
  protein stability index: 2.54 ± 0.053

## ERVIVVTGFAEVGPWGS [FAS2]
doa10∆
  protein stability index: 1.16 ± 0.085
pdr5∆
  protein stability index: 1.36 ± 0.083
san1∆
  protein stability index: 2.03 ± 0.11
ubr1∆
  protein stability index: 1.47 ± 0.074

## RKILESSNIVNENDSQA [YIL149C/MLP2]
pdr5∆
  protein stability index: 2.88 ± 0.14
san1∆
  protein stability index: 2.89 ± 0.085

## SIMPDLYFYRDPEEVEQ [RPS0A]
doa10∆
  protein stability index: 2.86 ± 0.082
pdr5∆
  protein stability index: 2.95 ± 0.077
san1∆
  protein stability index: 2.94 ± 0.063
ubr1∆
  protein stability index: 2.85 ± 0.06

## NPKYDTSNASMNTTLGS [YAR002W/NUP60]
doa10∆
  protein stability index: 3.12 ± 0.045
pdr5∆
  protein stability index: 3.15 ± 0.044
san1∆
  protein stability index: 3.12 ± 0.034
ubr1∆
  protein stability index: 3.14 ± 0.047

## SSLFNNSTNSNTTKPAF [YJL041W/NSP1]
doa10∆
  protein stability index: 2.45 ± 0.054
pdr5∆
  protein stability index: 2.15 ± 0.049
san1∆
  protein stability index: 2.61 ± 0.042
ubr1∆
  protein stability index: 2.06 ± 0.037

## SADCELLGIDATVPSGR [RPO31]
pdr5∆
  protein stability index: 3.06 ± 0.18
ubr1∆
  protein stability index: 3.32 ± 0.081

## LEKISSSNKDLEDEKMK [SMC4]
doa10∆
  protein stability index: 3.31 ± 0.079
pdr5∆
  protein stability index: 3.15 ± 0.093
san1∆
  protein stability index: 3.23 ± 0.038
ubr1∆
  protein stability index: 3.26 ± 0.077

## LLVIGGNQRKILQYSRT [YJR042W/NUP85]
doa10∆
  protein stability index: 1.86 ± 0.091
pdr5∆
  protein stability index: 2.27 ± 0.096
san1∆
  protein stability index: 1.46 ± 0.14
ubr1∆
  protein stability index: 1.4 ± 0.072

## LLDAGCKVVAEMIRGRS [SKP1]
pdr5∆
  protein stability index: 2.06 ± 0.14
ubr1∆
  protein stability index: 1.91 ± 0.1

## SSATIVLCLTRSSYMLE [YCG1]
doa10∆
  protein stability index: 1.76 ± 0.035
pdr5∆
  protein stability index: 2.1 ± 0.038
san1∆
  protein stability index: 1.91 ± 0.048
ubr1∆
  protein stability index: 2.23 ± 0.032

## FGHLMHYGNEHIRRMVP [RPN1]
doa10∆
  protein stability index: 1.71 ± 0.042
pdr5∆
  protein stability index: 1.82 ± 0.039
san1∆
  protein stability index: 1.6 ± 0.063
ubr1∆
  protein stability index: 1.96 ± 0.034

## ILDITDEELVSHFVSAV [RPP0]
doa10∆
  protein stability index: 2.99 ± 0.12
pdr5∆
  protein stability index: 2.88 ± 0.14
san1∆
  protein stability index: 3.01 ± 0.13
ubr1∆
  protein stability index: 3.05 ± 0.071

## HKMGVERSSKRLAKKPS [SIR3]
doa10∆
  protein stability index: 3.33 ± 0.064
pdr5∆
  protein stability index: 3.27 ± 0.067
san1∆
  protein stability index: 3.24 ± 0.043
ubr1∆
  protein stability index: 3.15 ± 0.062

## NTLNIDNTARVIFDASI [BRN1]
doa10∆
  protein stability index: 2.14 ± 0.05
pdr5∆
  protein stability index: 2.28 ± 0.039
san1∆
  protein stability index: 2.23 ± 0.056
ubr1∆
  protein stability index: 2.37 ± 0.032

## EPLAFYLEESFTNLGII [RGR1]
doa10∆
  protein stability index: 1.67 ± 0.063
pdr5∆
  protein stability index: 2.18 ± 0.053
san1∆
  protein stability index: 2.35 ± 0.071
ubr1∆
  protein stability index: 2.57 ± 0.045

## ETAAMASLALAHVFVGT [RPN1]
doa10∆
  protein stability index: 1.39 ± 0.044
pdr5∆
  protein stability index: 1.58 ± 0.047
san1∆
  protein stability index: 1.61 ± 0.098
ubr1∆
  protein stability index: 1.41 ± 0.052

## SVNPAMLPGSSNGGGKV [RPO31]
doa10∆
  protein stability index: 2.98 ± 0.071
pdr5∆
  protein stability index: 3.36 ± 0.12
san1∆
  protein stability index: 3.07 ± 0.08
ubr1∆
  protein stability index: 3.08 ± 0.06

## GTPLQNNLHELWALLNF [ISW2]
doa10∆
  protein stability index: 2.76 ± 0.045
pdr5∆
  protein stability index: 2.55 ± 0.051
san1∆
  protein stability index: 2.35 ± 0.05
ubr1∆
  protein stability index: 2.76 ± 0.041

## EETNVDIGVLEEYARRL [SMC4]
pdr5∆
  protein stability index: 3.36 ± 0.24
san1∆
  protein stability index: 3.64 ± 0.072
ubr1∆
  protein stability index: 3.48 ± 0.1

## LEEFEFKHGPMSLINDA [SMD2]
doa10∆
  protein stability index: 3.32 ± 0.073
pdr5∆
  protein stability index: 3.22 ± 0.062
san1∆
  protein stability index: 3.14 ± 0.059
ubr1∆
  protein stability index: 3.23 ± 0.055

## PTIEYVQCPTVIKLAKY [ARP9]
doa10∆
  protein stability index: 1.97 ± 0.047
pdr5∆
  protein stability index: 1.87 ± 0.034
san1∆
  protein stability index: 1.75 ± 0.068
ubr1∆
  protein stability index: 1.98 ± 0.032

## GEGSTVNASVDVDQHGN [SWI3]
pdr5∆
  protein stability index: 3.47 ± 0.17
san1∆
  protein stability index: 2.87 ± 0.29
ubr1∆
  protein stability index: 3.35 ± 0.19

## LEDEKMKFQESLKKVDE [SMC4]
pdr5∆
  protein stability index: 2.08 ± 0.26

## MACNFQFPEIAYPGKLI [CSL4]
doa10∆
  protein stability index: 2.88 ± 0.12
pdr5∆
  protein stability index: 2.9 ± 0.12
san1∆
  protein stability index: 2.76 ± 0.12
ubr1∆
  protein stability index: 2.62 ± 0.16

## MNGNTNANTVFAGSNNQ [YOR098C/NUP1]
doa10∆
  protein stability index: 2.63 ± 0.12
pdr5∆
  protein stability index: 3.27 ± 0.12
san1∆
  protein stability index: 3.31 ± 0.16
ubr1∆
  protein stability index: 3.26 ± 0.085

## EKLTSKSLDEQLLLLSD [LRP1]
doa10∆
  protein stability index: 3.16 ± 0.077
pdr5∆
  protein stability index: 3.44 ± 0.065
san1∆
  protein stability index: 2.94 ± 0.038
ubr1∆
  protein stability index: 3.31 ± 0.036

## MKLKLMIVYYKDAISFI [YCS4]
doa10∆
  protein stability index: 1.82 ± 0.053
pdr5∆
  protein stability index: 1.49 ± 0.049
san1∆
  protein stability index: 1.8 ± 0.091
ubr1∆
  protein stability index: 1.73 ± 0.042

## KPEIDENGTLLVPPPRT [RPR2]
doa10∆
  protein stability index: 3.02 ± 0.048
pdr5∆
  protein stability index: 3.15 ± 0.051
san1∆
  protein stability index: 2.99 ± 0.036
ubr1∆
  protein stability index: 2.987 ± 0.029

## LVSANNDNNSPHTPVTR [YLR018C/POM34]
doa10∆
  protein stability index: 2.63 ± 0.12
pdr5∆
  protein stability index: 2.85 ± 0.072
san1∆
  protein stability index: 2.92 ± 0.08
ubr1∆
  protein stability index: 2.95 ± 0.12

## KNTLLERLKQLTPNEIK [SWP82]
doa10∆
  protein stability index: 2.8 ± 0.063
pdr5∆
  protein stability index: 2.81 ± 0.065
san1∆
  protein stability index: 2.71 ± 0.046
ubr1∆
  protein stability index: 2.68 ± 0.054

## NRTVLLKIFKIFCIDLE [SRB8]
doa10∆
  protein stability index: 1.94 ± 0.094
pdr5∆
  protein stability index: 2.15 ± 0.089
san1∆
  protein stability index: 1.89 ± 0.13
ubr1∆
  protein stability index: 2.3 ± 0.071

## ADRNDDDEGSFAQENSE [SRB6]
doa10∆
  protein stability index: 3.08 ± 0.11
pdr5∆
  protein stability index: 3.22 ± 0.13
san1∆
  protein stability index: 2.6 ± 0.17
ubr1∆
  protein stability index: 3.22 ± 0.12

## DEGHVLKLENLHVVSKS [SIN4]
doa10∆
  protein stability index: 3.14 ± 0.11
pdr5∆
  protein stability index: 2.65 ± 0.16
san1∆
  protein stability index: 2.73 ± 0.19
ubr1∆
  protein stability index: 3.02 ± 0.13

## KGQGPFTLTYDIIETFS [YMR129W/POM152]
doa10∆
  protein stability index: 1.95 ± 0.045
pdr5∆
  protein stability index: 2.31 ± 0.064
san1∆
  protein stability index: 2.02 ± 0.057
ubr1∆
  protein stability index: 2.48 ± 0.044
